As usually defined, the EC50 is the midpoint of the concentration-response curve. A high value points to weaker potency.

Consider one substance from US20190248924A1.

This experiment deals with human CTLA-4Ig (R&D Systems) (human) (UniProt P16410). Description: ELISA, human CTLA-4Ig immobilized on the plate, detection with anti-human Fab-HRP, OD450; unit taken from the x axis; fit value of a flat control curve, far beyond the range tested. (In general: In an ELISA, binding on a coated surface is turned into a signal by an enzyme label.)
UniProt P16410, sequence (P16410 37-162): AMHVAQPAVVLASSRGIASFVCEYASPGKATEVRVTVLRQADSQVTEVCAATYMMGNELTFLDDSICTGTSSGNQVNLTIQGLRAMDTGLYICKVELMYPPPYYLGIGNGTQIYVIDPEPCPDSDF

hIgG Control (antibody) yielded an EC50 of 51.3 µM.
